Test results: the supplement of paper PMC10567573

B1: KCNA3 (parent)
chain: GERVVINISGLRFETQLKTLCQFP
B2: TRAF3IP2 (parent)
chain: PGQPLPGASVRGLHPVQKVILNYP
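Also: lentivirally expressed fusions sorted by FACS into six bins by GFP to DsRed ratio, PSI derived from sequencing read proportions per bin multiplied by bin number.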

Variants of: B1
Assay: protein stability index of a GFP-peptide fusion (GPS, HEK-293T) (PSI 1-6); higher = more stable
Conditions: c terminus: a fixed tail appended
Work on GERVVINISGLRFETQLSTLCQFP yielded a protein stability index of 1.78.
For GERVVINISGLRFETQLMTLCQFP, the protein stability index was 3.17.
Variant GERVVINISGLRFETQLQTLCQFP has a protein stability index of 1.87.
With GERVVINISGLRFETQLCTLCQFP the protein stability index was 1.92.
GERVVINISGLRFETQLDTLCQFP showed a protein stability index of 3.02.
For GERVVINISGLRFETQLETLCQFP, the protein stability index was 3.06.
GERVVINISGLRFETQLRTLCQFP showed a protein stability index of 2.29.
With GERVVINISGLRFETQLITLCQFP the protein stability index was 3.07.
For GERVVINISGLRFETQLKALCQFP, the protein stability index was 1.87.
For GERVVINISGLRFETQLKCLCQFP, the protein stability index was 3.24.
In the case of GERVVINISGLRFETQLKQLCQFP, the protein stability index is reported as 1.28.
With GERVVINISGLRFETQLKELCQFP the protein stability index was 2.
For GERVVINISGLRFETQLKKLCQFP, the protein stability index was 1.45.
GERVVINISGLRFETQLKFLCQFP showed a protein stability index of 1.76.
GERVVINISGLRFETQLKPLCQFP showed a protein stability index of 1.49.
Variant GERVVINISGLRFETQLKRLCQFP has a protein stability index of 1.32.
GERVVINISGLRFETQLKMLCQFP showed a protein stability index of 3.15.
In the case of GERVVINISGLRFETQLKNLCQFP, the protein stability index is reported as 1.34.
Work on GERVVINISGLRFETQLKHLCQFP yielded a protein stability index of 1.78.
Variant GERVVINISGLRFETQLKTLCQFW has a protein stability index of 1.69.
GERVVINISGLRFETQLKTLCQFG showed a protein stability index of 2.75.
Work on GERVVINISGLRFETQLKTLCQFI yielded a protein stability index of 2.
Variant GERVVINISGLRFETQLKTLCQFN has a protein stability index of 3.07.
Variant GERVVINISGLRFETQLKTLCQFE has a protein stability index of 4.68.
With GERVVINISGLRFETQLKTLCQFF the protein stability index was 3.52.
GERVVINISGLRFETQLKTLCQFA gave a protein stability index of 2.47.
For GERVVINISGLRFETQLKTLCQFY, the protein stability index was 2.26.
With GERVVINISGLRFETQLKTLCQFV the protein stability index was 1.04.
For GERVVINISGLRFETQLKTLCQFC, the protein stability index was 2.4.
For GERVVINISGLRFETQLKTLCQFL, the protein stability index was 2.2.
For GERVVINISGLRFETQLKTLCQFK, the protein stability index was 1.44.
For GERVVINISGLRFETQLKTNCQFP, the protein stability index was 2.33.
GERVVINISGLRFETQLKTSCQFP gave a protein stability index of 2.34.
Work on GERVVINISGLRFETQLKTGCQFP yielded a protein stability index of 1.95.
Variant GERVVINISGLRFETQLKTKCQFP has a protein stability index of 3.74.
Work on GERVVINISGLRFETQLKTICQFP yielded a protein stability index of 1.56.
For GERVVINISGLRFETQLKTDCQFP, the protein stability index was 1.22.
GERVVINISGLRFETQLKTQCQFP gave a protein stability index of 1.2.
GERVVINISGLRFETQLKTCCQFP gave a protein stability index of 1.39.
GERVVINISGLRFETQLKTACQFP showed a protein stability index of 2.24.
With GERVVINISGLRFETQLKTRCQFP the protein stability index was 2.84.
In the case of GERVVINISGLRFETQLKTMCQFP, the protein stability index is reported as 2.22.
GERVVINISGLRFETQLKTLGQFP gave a protein stability index of 1.
For GERVVINISGLRFETQLKTLDQFP, the protein stability index was 2.14.
Work on GERVVINISGLRFETQLKTLFQFP yielded a protein stability index of 2.95.
Work on GERVVINISGLRFETQLKTLQQFP yielded a protein stability index of 2.57.
Work on GERVVINISGLRFETQLKTLTQFP yielded a protein stability index of 2.68.
For GERVVINISGLRFETQLKTLVQFP, the protein stability index was 1.81.
For GERVVINISGLRFETQLKTLPQFP, the protein stability index was 3.67.
With GERVVINISGLRFETQLKTLRQFP the protein stability index was 3.08.
GERVVINISGLRFETQLKTLMQFP gave a protein stability index of 1.12.
GERVVINISGLRFETQLKTLNQFP gave a protein stability index of 1.37.
With GERVVINISGLRFETQLKTLHQFP the protein stability index was 1.91.
For GERVVINISGLRFETQLKTLIQFP, the protein stability index was 3.26.
For GERVVINISGLRFETQLKTLCNFP, the protein stability index was 2.1.
GERVVINISGLRFETQLKTLCGFP showed a protein stability index of 2.94.
Work on GERVVINISGLRFETQLKTLCTFP yielded a protein stability index of 2.59.
In the case of GERVVINISGLRFETQLKTLCCFP, the protein stability index is reported as 4.8.
GERVVINISGLRFETQLKTLCAFP gave a protein stability index of 1.9.
GERVVINISGLRFETQLKTLCEFP showed a protein stability index of 2.39.
Variant GERVVINISGLRFETQLKTLCHFP has a protein stability index of 2.26.
GERVVINISGLRFETQLKTLCMFP gave a protein stability index of 3.99.
GERVVINISGLRFETQLKTLCDFP gave a protein stability index of 3.65.
With GERVVINISGLRFETQLKTLCLFP the protein stability index was 1.84.
GERVVINISGLRFETQLKTLCQRP gave a protein stability index of 1.92.
In the case of GERVVINISGLRFETQLKTLCQQP, the protein stability index is reported as 1.94.
Work on GERVVINISGLRFETQLKTLCQKP yielded a protein stability index of 1.59.
Variant GERVVINISGLRFETQLKTLCQHP has a protein stability index of 3.14.
Work on GERVVINISGLRFETQLKTLCQDP yielded a protein stability index of 2.25.
Work on GERVVINISGLRFETQLKTLCQCP yielded a protein stability index of 3.65.
With GERVVINISGLRFETQLKTLCQNP the protein stability index was 1.52.
For GERVVINISGLRFETQLKTLCQEP, the protein stability index was 2.2.
Variant GERVVINISGLRFETQLKTLCQTP has a protein stability index of 1.36.
GERVVINISGLRFETQLKTLCQSP gave a protein stability index of 2.88.
GERVVINISGLRFETQLKTLCQAP gave a protein stability index of 2.41.
For GERVVINISGLRFETQLKTLCQLP, the protein stability index was 1.95.
Work on GERVVINISGLRFETQLKTLCQIP yielded a protein stability index of 2.48.

Variants of: B2
Assay: as above
Conditions: c terminus: a fixed tail appended
In the case of PNQPLPGASVRGLHPVQKVILNYP, the protein stability index is reported as 2.65.
Work on PQQPLPGASVRGLHPVQKVILNYP yielded a protein stability index of 2.85.
PCQPLPGASVRGLHPVQKVILNYP gave a protein stability index of 2.22.
For PTQPLPGASVRGLHPVQKVILNYP, the protein stability index was 3.21.
Variant PLQPLPGASVRGLHPVQKVILNYP has a protein stability index of 2.23.
Variant PPQPLPGASVRGLHPVQKVILNYP has a protein stability index of 3.35.
In the case of PFQPLPGASVRGLHPVQKVILNYP, the protein stability index is reported as 2.92.
Variant PHQPLPGASVRGLHPVQKVILNYP has a protein stability index of 2.06.
Variant PVQPLPGASVRGLHPVQKVILNYP has a protein stability index of 3.21.
PSQPLPGASVRGLHPVQKVILNYP gave a protein stability index of 2.81.
For PWQPLPGASVRGLHPVQKVILNYP, the protein stability index was 2.15.
PRQPLPGASVRGLHPVQKVILNYP showed a protein stability index of 3.39.
Variant PEQPLPGASVRGLHPVQKVILNYP has a protein stability index of 3.79.
For PKQPLPGASVRGLHPVQKVILNYP, the protein stability index was 2.58.
Work on PMQPLPGASVRGLHPVQKVILNYP yielded a protein stability index of 2.44.
PIQPLPGASVRGLHPVQKVILNYP showed a protein stability index of 2.62.
For PAQPLPGASVRGLHPVQKVILNYP, the protein stability index was 2.89.
